In patent publication US20110098218A1 (AGENCY FOR SCIENCE TECHNOLOGY AND RESEARCH, published 2011):
Blank lines part the entries; values can stand above or below the binder they belong to.

Biological target: T1, Flag-tagged mouse STAT3 (pXJ40-Flag-mSTAT3) (mouse, UniProt P42227 1-770, limits assumed, phosphorylated after leptin treatment (phospho-STAT3); the site is not given)
T1 construct: also called phospho-STAT3; Flag-tagged STAT3; not shown: Flag tag
Assay: coimmunoprecipitation

T1 sequence (P42227 whole entry): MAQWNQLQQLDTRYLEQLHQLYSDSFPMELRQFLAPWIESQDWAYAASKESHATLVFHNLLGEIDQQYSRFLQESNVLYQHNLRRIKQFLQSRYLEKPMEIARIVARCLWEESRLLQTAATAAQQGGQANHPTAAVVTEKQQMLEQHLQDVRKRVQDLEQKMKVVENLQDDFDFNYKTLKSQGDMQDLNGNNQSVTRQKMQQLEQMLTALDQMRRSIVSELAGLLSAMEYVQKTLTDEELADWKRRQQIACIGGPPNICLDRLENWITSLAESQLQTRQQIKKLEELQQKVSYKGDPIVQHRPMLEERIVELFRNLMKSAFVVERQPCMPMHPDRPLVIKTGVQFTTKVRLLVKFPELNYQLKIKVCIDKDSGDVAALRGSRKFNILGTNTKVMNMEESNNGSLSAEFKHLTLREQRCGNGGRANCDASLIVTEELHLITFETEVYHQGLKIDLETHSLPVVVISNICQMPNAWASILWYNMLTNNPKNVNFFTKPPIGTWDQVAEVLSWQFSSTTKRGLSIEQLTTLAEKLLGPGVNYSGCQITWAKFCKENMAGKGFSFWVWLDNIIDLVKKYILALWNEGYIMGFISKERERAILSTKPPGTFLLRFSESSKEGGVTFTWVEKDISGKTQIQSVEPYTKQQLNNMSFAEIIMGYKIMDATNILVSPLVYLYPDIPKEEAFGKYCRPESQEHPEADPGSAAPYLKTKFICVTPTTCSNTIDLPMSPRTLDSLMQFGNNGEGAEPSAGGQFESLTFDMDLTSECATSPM

binding result: no binding
B1: FoxO1^(1-123) (other)
chain: MAEAPQVVETDPDFEPLPRQRSCTWPLPRPEFNQSNSTTSSPAPSGGAAANPDAAASLASASAVSTDFMSNLSLLEESEDFARAPGCVAVAAAAAASRGLCGDFQGPEAGCVHPAPPQPPPTG

binding result: no binding
B2: FoxO1^(1-123)-(168-652) (other, UniProt Q9R1E0 1-123, looked up)
chain: MAEAPQVVETDPDFEPLPRQRSCTWPLPRPEFNQSNSTTSSPAPSGGAAANPDAAASLASASAVSTDFMSNLSLLEESEDFARAPGCVAVAAAAAASRGLCGDFQGPEAGCVHPAPPQPPPTGKAIESSAEKRLTLSQIYEWMVKSVPYFKDKGDSNSSAGWKNSIRHNLSLHSKFIRVQNEGTGKSSWWMLNPEGGKSGKSPRRRAASMDNNSKFAKSRGRAAKKKASLQSGQEGPGDSPGSQFSKWPASPGSHSNDDFDNWSTFRPRTSSNASTISGRLSPIMTEQDDLGDGDVHSLVYPPSAAKMASTLPSLSEISNPENMENLLDNLNLLSSPTSLTVSTQSSPGSMMQQTPCYSFAPPNTSLNSPSPNYSKYTYGQSSMSPLPQMPMQTLQDSKSSYGGLNQYNCAPGLLKELLTSDSPPHNDIMSPVDPGVAQPNSRVLGQNVMMGPNSVMPAYGSQASHNKMMNPSSHTHPGHAQQTASVNGRTLPHVVNTMPHTSAMNRLTPVKTPLQVPLSHPMQMSALGSYSSVSSCNGYGRMGVLHQEKLPSDLDGMFIERLDCDMESIIRNDLMDGDTLDFNFDNVLPNQSFPHSVKTTTHSWVSG
